Read-outs that look alike come from different tables or passages of the source.

Test [1] addresses WT-nsp5_(BA.1), SARS-CoV-2 nsp5 protease of the Omicron (BA.1) strain (SARS-CoV-2 (Omicron BA.1)). As to the kind of experiment: SEC-MALS.
For test [2] the target is unchanged. As to the kind of experiment: SEC-MALS. This is another data set of the same source. In general terms: In gel filtration, larger molecules generally elute earlier.

With “WT-nsp5_(BA.1), SARS-CoV-2 nsp5 protease of the Omicron (BA.1) strain (enzyme)”, the values for the percent dimeric in test [1] and in test [2] were 64% and 72%, respectively. Further, the stoichiometry N (in general, a count of units in the complex or per binding partner) in test [2] amounted to 2.

Source of the values: article PMC12143351.
